The binders below were run against AP2-I D3 (Plasmodium falciparum, UniProt Q8IJW6 910-1027) (assay: gcPBM; about 25 ug protein; PBS, 1% milk, 0.2 mg/ml BSA, salmon testes DNA, 0.03% Triton X-100). Details: tags: N-terminal GST (pGEX-4T-1), kept; label: surface-attached array probe.

Binder | binding signal
GTGCAC_site10493 (dsDNA) DNA 1: AAAGGATTTATACTAGTGCAAAAATATAAAAATATA DNA 2: TATATTTTTATATTTTTGCACTAGTATAAATCCTTT | 9.74 ln median PBM intensity, better of two orientations
GTGCAC_site9756 (dsDNA) DNA 1: TACTTATTTAAAATAGTGCATGAATAGAAGATATAT DNA 2: ATATATCTTCTATTCATGCACTATTTTAAATAAGTA | 9.47 ln median PBM intensity, better of two orientations
GTGCAC_site9681 (dsDNA) DNA 1: ACTACGAATGGTAGAGTGCAGTCTGGAGAAAAGTAC DNA 2: GTACTTTTCTCCAGACTGCACTCTACCATTCGTAGT | 9.19 ln median PBM intensity, better of two orientations
GTGCAC_site9741 (dsDNA) DNA 1: ATTCATATTTTTCAAGTGCGCATTAAAATATTAACC DNA 2: GGTTAATATTTTAATGCGCACTTGAAAAATATGAAT | 9.34 ln median PBM intensity, better of two orientations
GTGCAC_site10541 (dsDNA) DNA 1: TTCAAATAAATAGTAGTGCATATTTATTAATGTAAA DNA 2: TTTACATTAATAAATATGCACTACTATTTATTTGAA | 9.69 ln median PBM intensity, better of two orientations
GTGCAC_site9563 (dsDNA) DNA 1: AAAATAATCTTTTGATTGCACTGTTACATTTTTTCT DNA 2: AGAAAAAATGTAACAGTGCAATCAAAAGATTATTTT | 9.41 ln median PBM intensity, better of two orientations
GTGCAC_negctrl_site161 (dsDNA) DNA 1: AGAAAAAAAAAAAAAAATAAAAAAATAAATAAATAA DNA 2: TTATTTATTTATTTTTTTATTTTTTTTTTTTTTTCT | 6.87 ln median PBM intensity, better of two orientations
GTGCAC_negctrl_site234 (dsDNA) DNA 1: GACAAAAAATTAAAATAAAATAATAATATAATAAAA DNA 2: TTTTATTATATTATTATTTTATTTTAATTTTTTGTC | 6.9 ln median PBM intensity, better of two orientations
GTGCAC_site9560 (dsDNA) DNA 1: ATACATCGTATATAAGTGCATATTAAGGTCTTAAGA DNA 2: TCTTAAGACCTTAATATGCACTTATATACGATGTAT | 9.59 ln median PBM intensity, better of two orientations
GTGCAC_site10638 (dsDNA) DNA 1: TAATATAATGATGCAGTGCATATGTTAAAATGAAAA DNA 2: TTTTCATTTTAACATATGCACTGCATCATTATATTA | 9.15 ln median PBM intensity, better of two orientations
GTGCAC_site10402 (dsDNA) DNA 1: TTACACATGTATTTGGTGCATGTTGTTAACAAAATA DNA 2: TATTTTGTTAACAACATGCACCAAATACATGTGTAA | 9.49 ln median PBM intensity, better of two orientations
GTGCAC_site10324 (dsDNA) DNA 1: TTGTTTTATTATTCGATGCACTACAGAAATATATTC DNA 2: GAATATATTTCTGTAGTGCATCGAATAATAAAACAA | 9.21 ln median PBM intensity, better of two orientations
GTGCAC_site10283 (dsDNA) DNA 1: AAAATAATTTTATAAGTGCAAAATAGCTTATTTATA DNA 2: TATAAATAAGCTATTTTGCACTTATAAAATTATTTT | 9.62 ln median PBM intensity, better of two orientations
GTGCAC_site9605 (dsDNA) DNA 1: AAGGGAAAAATATGGTTGCACTAAAAATATGTAATT DNA 2: AATTACATATTTTTAGTGCAACCATATTTTTCCCTT | 9.25 ln median PBM intensity, better of two orientations
GTGCAC_negctrl_site123 (dsDNA) DNA 1: TCCTTAAAAATCTAAAAAGAAAAAAACATATATTTT DNA 2: AAAATATATGTTTTTTTCTTTTTAGATTTTTAAGGA | 6.9 ln median PBM intensity, better of two orientations
GTGCAC_site10457 (dsDNA) DNA 1: TACAATATATTTATAGTGCATATTACTTTTAACTTT DNA 2: AAAGTTAAAAGTAATATGCACTATAAATATATTGTA | 9.8 ln median PBM intensity, better of two orientations
GTGCAC_negctrl_site185 (dsDNA) DNA 1: AAAAGAAAAATGTCATATGATATCATATATTTTATA DNA 2: TATAAAATATATGATATCATATGACATTTTTCTTTT | 6.79 ln median PBM intensity, better of two orientations
GTGCAC_site10497 (dsDNA) DNA 1: AAAAAAAAAAAATGTGTGCACATTATTTCAACTTAA DNA 2: TTAAGTTGAAATAATGTGCACACATTTTTTTTTTTT | 9.36 ln median PBM intensity, better of two orientations
GTGCAC_site10325 (dsDNA) DNA 1: TATATACATGTGAGAGTGCATATAGACATAAAAAAT DNA 2: ATTTTTTATGTCTATATGCACTCTCACATGTATATA | 10 ln median PBM intensity, better of two orientations
GTGCAC_site9514 (dsDNA) DNA 1: GTAGGATTTTCTTTTGTGCGCAATATAAAAAGAAAA DNA 2: TTTTCTTTTTATATTGCGCACAAAAGAAAATCCTAC | 9.23 ln median PBM intensity, better of two orientations
GTGCAC_negctrl_site309 (dsDNA) DNA 1: AATGATGTTGTATTGTTTCGATATAACATCTAATTT DNA 2: AAATTAGATGTTATATCGAAACAATACAACATCATT | 6.82 ln median PBM intensity, better of two orientations
GTGCAC_negctrl_site307 (dsDNA) DNA 1: AATAATAAACACAATCAAATAAAATATGAAATATAA DNA 2: TTATATTTCATATTTTATTTGATTGTGTTTATTATT | 6.89 ln median PBM intensity, better of two orientations

Binder | binding signal
GTGCAC_site9973 (dsDNA) DNA 1: AATTAAAAGTGAAGAGTGCATAGAATTTTTTACTTT DNA 2: AAAGTAAAAAATTCTATGCACTCTTCACTTTTAATT | 9.92 ln median PBM intensity, better of two orientations
GTGCAC_site10715 (dsDNA) DNA 1: TTTTTGTAACCGATTCTGCACTGAGAAGCACATATA DNA 2: TATATGTGCTTCTCAGTGCAGAATCGGTTACAAAAA | 9.57 ln median PBM intensity, better of two orientations
GTGCAC_site10565 (dsDNA) DNA 1: AAAAAAGAACGCATAGTGCATATCTAAAAGATTTTT DNA 2: AAAAATCTTTTAGATATGCACTATGCGTTCTTTTTT | 9.16 ln median PBM intensity, better of two orientations
GTGCAC_site9771 (dsDNA) DNA 1: GTACGTTTCTCCAGACTGCACTATACGACTCGTACA DNA 2: TGTACGAGTCGTATAGTGCAGTCTGGAGAAACGTAC | 9.61 ln median PBM intensity, better of two orientations
GTGCAC_site10475 (dsDNA) DNA 1: TAATGTTCCTATATAGTGCAATTATGTTTTATTTCT DNA 2: AGAAATAAAACATAATTGCACTATATAGGAACATTA | 9.98 ln median PBM intensity, better of two orientations
GTGCAC_site10708 (dsDNA) DNA 1: TTCTAAAATTATATAGTGCAATTATATTAATTTTTC DNA 2: GAAAAATTAATATAATTGCACTATATAATTTTAGAA | 9.54 ln median PBM intensity, better of two orientations
GTGCAC_site9816 (dsDNA) DNA 1: AAGACATTTTTTAAGGTGCTTTGGAAAAAGGAGTAT DNA 2: ATACTCCTTTTTCCAAAGCACCTTAAAAAATGTCTT | 9.5 ln median PBM intensity, better of two orientations
GTGCAC_negctrl_site587 (dsDNA) DNA 1: AAAAAAATAAAATTATATAAAATAAATTTTTATAAT DNA 2: ATTATAAAAATTTATTTTATATAATTTTATTTTTTT | 6.82 ln median PBM intensity, better of two orientations
GTGCAC_site10046 (dsDNA) DNA 1: TTTTTGTTATATAAAGTGCAGTGACAAGCAGTTTAA DNA 2: TTAAACTGCTTGTCACTGCACTTTATATAACAAAAA | 9.65 ln median PBM intensity, better of two orientations
GTGCAC_negctrl_site256 (dsDNA) DNA 1: AATGATTTTAAATGAACATAATTTATATTCATAACA DNA 2: TGTTATGAATATAAATTATGTTCATTTAAAATCATT | 6.86 ln median PBM intensity, better of two orientations
GTGCAC_site10627 (dsDNA) DNA 1: TTAAGATACAAAAAAGTGCATATTTTTTAACAAAAA DNA 2: TTTTTGTTAAAAAATATGCACTTTTTTGTATCTTAA | 9.96 ln median PBM intensity, better of two orientations
GTGCAC_negctrl_site139 (dsDNA) DNA 1: TGATGAAAATCTACATGAATGTTTTTATATCTATAT DNA 2: ATATAGATATAAAAACATTCATGTAGATTTTCATCA | 6.88 ln median PBM intensity, better of two orientations
GTGCAC_site9599 (dsDNA) DNA 1: TTATATGTATATATAGTGCAGAACAAAAGATTATAT DNA 2: ATATAATCTTTTGTTCTGCACTATATATACATATAA | 9.82 ln median PBM intensity, better of two orientations
GTGCAC_site10208 (dsDNA) DNA 1: TTTTGTTATTAGAGGGTGCTTATAATGAACTCCTAC DNA 2: GTAGGAGTTCATTATAAGCACCCTCTAATAACAAAA | 9.87 ln median PBM intensity, better of two orientations
GTGCAC_site10554 (dsDNA) DNA 1: TATATATATATATGAGTGCATATGTGTAATATAAAA DNA 2: TTTTATATTACACATATGCACTCATATATATATATA | 9.85 ln median PBM intensity, better of two orientations
GTGCAC_site9414 (dsDNA) DNA 1: TTAAATATTTTTAGAGTGCATGTAATAAAAATATAA DNA 2: TTATATTTTTATTACATGCACTCTAAAAATATTTAA | 9.27 ln median PBM intensity, better of two orientations
GTGCAC_negctrl_site558 (dsDNA) DNA 1: AAATAATATATTCTATATAATAAATTATAAATATAA DNA 2: TTATATTTATAATTTATTATATAGAATATATTATTT | 6.74 ln median PBM intensity, better of two orientations
GTGCAC_negctrl_site37 (dsDNA) DNA 1: AATAAATAAATAAATTAATAAATTAATAAATTAATA DNA 2: TATTAATTTATTAATTTATTAATTTATTTATTTATT | 6.84 ln median PBM intensity, better of two orientations
GTGCAC_site10115 (dsDNA) DNA 1: TTTGTTTGTAAAATGTTGCACTTTCTTTTGCTGATA DNA 2: TATCAGCAAAAGAAAGTGCAACATTTTACAAACAAA | 9.33 ln median PBM intensity, better of two orientations
GTGCAC_negctrl_site662 (dsDNA) DNA 1: TTTTAATGAAATATCAAAAAAATTTATGATTTCAAA DNA 2: TTTGAAATCATAAATTTTTTTGATATTTCATTAAAA | 6.64 ln median PBM intensity, better of two orientations
GTGCAC_site10006 (dsDNA) DNA 1: ATATATTAACAAAAGGTGCTTTTGGCAAAGTATAAT DNA 2: ATTATACTTTGCCAAAAGCACCTTTTGTTAATATAT | 9.45 ln median PBM intensity, better of two orientations
GTGCAC_negctrl_site531 (dsDNA) DNA 1: AAATAAATTAAAATAAATTAAATTAAATTAGCATTA DNA 2: TAATGCTAATTTAATTTAATTTATTTTAATTTATTT | 6.62 ln median PBM intensity, better of two orientations

From publication PMC11417369, “DNA sequence and chromatin differentiate sequence-specific transcription factor binding in the human malaria parasite Plasmodium falciparum”
